The data set in a line: label from the status in PepcDB records.

For the sequence “MLTAQSEYVKKLRPLLPPEAFQADPKKLVILGLNLGIYVAGLTIARHLHQWPGQWLWLFLPMALLMGNSVTVFLFGSHDLMHGSVLKKRSKISYLISLLGLSLWWMPPSQWRSLHNQVHHNNTNSLRDPDRNYLHEQPKTWGKWIHHLFAPSGEVNTLWLIFGMGTAWGVHNFRNLISVLFFTGGNADFVPAAFTVKAQDRQRIWLELAAIGAVHLSILFYLQFQLIPIILGYFLPIFLGHAMGMFYIYTNHLACPMTDINDPLVNSVSLRMPKLFDCLHFNFSYHTEHHLFPDVNSDYYPLVQDLLQTHYPGQMNLLTAKEAWKMLLETPRHYQGETTLVGYNGGETIACPLPKNVPDLTETKVTASV”, the protein production entry is recorded as “failed”.

Turning to “MLTFEKVLEIFADYLAADKTIEVYISRHGCVRVEFDQDFHYCTGEVCHTPRKLFDLLSDDYQTYLEIELTKGRRELTEDDIKEADTLCKRYLDRWKEELGLEHHHHHH”, the protein production entry is recorded as “not failed”.

With “MLTIDTASRTFHCKTWVTGQTQGKAVIARERISFWGGFDPQTGRIVDPYSSLRGRDISDCVLILLSSKGSSGTSGMLSLATRAGHAPAAMIQVEMDPVTVMGCLVNNIPLLQATGFDPFEQIQDGDLVRIDGENGTITLAPGQALEHHHHHH”, the protein production result was “not failed”.

“MLTKLGIKGRELLLTILPASLMAAMLGGYFTWMQLSELQSQLLLRGEMIAQDLAPLSASALGRKDKVLLSRIATQTLEQPDVRAVSFLDVDRSPLAHAGPTMISPTPIGNSSQLLNSTGTDATRYLLPVFGNQRHLTSPIIPAEADTLMGWVDVEISHNGTLLRGYRSLFASLLLIFTGLAITAVVAVRLSRTINGPMSQIKQAVSQLKDGNLETRLPPLGSRELDELASGINRMAATLQNAQEELQMSIDQATEDVRQNLETIEIQNIELDLARKEALEASRIKSEFLANMSHEIRTPLNGILGFTHLLQKSELTPRQFDYLATIEKSADNLLSIINEILDFSKIEAGKLVLDNIPFNLRDLLQDTLTILAPAAHAKHLELVSLVYRDTPLALSGDPLRLRQILTNLVSNAIKFTREGTIVARAMLEDETEEHAQLRISVQDTGIGLSSQDVRALFQAFSQADNSLSRQPGGTGLGLVISKRLIEQMGGEIGVDSTPGEGSEFWISLKLPKAREDKEESLNLPLEGLRAAVLEHHDLARQALEHQLEDCGLHTVVFTNLENLLNGVTAAHETPAAIDLAVLGVTTLEISPERLRQHIWDLENLNCKVMVLCPTTEYALFQLAVHDVYTQLQAKPACTRKLQKALSELIAPRAIRADIAPPLSSRAPRVLCVDDNPANLLLVQTLLEDMGAEVMAVEGGYAAVNAVQQEAFDLVLMDVQMPGMDGRQATEAIRAWEAERGQSSLPIVALTAHAMANEKRSLLQSGMDDYLTKPISERQLAQVVLKWSGLALRNPAPERQNESLEAHVGPLVLDPEEGLRLAAGKADLAADMLAMLLASLDADREAIRVARASQDVQALIERIHRLHGATRYCGVPQLRTACQRAETLLKQDAPHTGDALDDLDKAIVRLETEARVTA”: the protein production result is listed as “failed”.

With “MLTLDLSAVRCQNGVPFLRYYWNLPVNQSHSGPLANNHAQLGLLFISVAVLFWGMLPIALKLSGSFIDPVTLTWFRFLVALIVSILVQWSAGSLKQFAALDAKVWLRLILAGLFLMLNYVSFVYSLDYLAPGAAQLNFQTSPFFLAFGGVLFFKERLNAIQLSCFASLALGMLMFFHPFLDFSATDNHEIWLGVMIVQFSALSWTTYALLQKSLLNRLSPANVLLVIYALGIFAMAPFSDFSQFAQMNSFDWQVALFCAANTLIAYGCFGQSMKYWPTAQVSAMLALTPVFSFSATALVVSIGWWPEVFRADELDALSLFGIGVIIVSVMVVQLLPLYRQRRARRLQPI”, the protein production result is reported as “failed”.

“MLTLEIFRALLLGFTIGLTGALVPGPMLFATIELSLKKGWLAGPEVVFGHILVELVLSILILFGVASFIGSGAISAVSIIGGFSLTVFGLLTVKDAKTTASAGLSPETSGLKLTSNPVALGLITSVSNPYFWIWWLTAGSALVLKAYELGIIISIAYILGHWTADLSWFTAISGSFSRGKTLFSQQTHRYILYACGTFLIFFGLYFMFNYKGAAQLF”: the protein production result is recorded as “failed”.

Consider “MLTMQEIKAHYRFTDEDAELLGSLFPLAETNKERLADQFYDYLLGIPETAEFLKEDLVLQKLKQTHQDWFVSLFAGSYDNRYIHNLQKIGHAHVRVGLNAHYVNVAMNVVRQFTLSIIQDNFPDPEERRQRREAVEKILDINLDIMSASYREEEMRKFFVSHRLESKLITATERFTYGLNLILVLALAGVSVSVVGLFIWDIGHIFQGSVEKGILSALGSLLILWMMIELIENEIKILKGGRFNILFFIGVIIVALIREILISTLRHDPLTTQVFLAGTLLVLGVVYFLVSKSQQPYTPH”, for which the protein production entry is given as “failed”.
